Measurements reported in patent publication US20240392024A1 (SHANGHAI CELGEN BIO PHARMACEUTICAL, published 2024).
Where “and” joins values, the source holds several entries; their conditions need not be identical. Equal values may be shown once.

T1: human TNFR2 on the cell membrane (human, UniProt P20333 23-461)
T1 construct: whole, on cells; One molecule for all cell formats; also called TNFR2-CHO cells; CHO-TNFR2
T1 sequence (looked up): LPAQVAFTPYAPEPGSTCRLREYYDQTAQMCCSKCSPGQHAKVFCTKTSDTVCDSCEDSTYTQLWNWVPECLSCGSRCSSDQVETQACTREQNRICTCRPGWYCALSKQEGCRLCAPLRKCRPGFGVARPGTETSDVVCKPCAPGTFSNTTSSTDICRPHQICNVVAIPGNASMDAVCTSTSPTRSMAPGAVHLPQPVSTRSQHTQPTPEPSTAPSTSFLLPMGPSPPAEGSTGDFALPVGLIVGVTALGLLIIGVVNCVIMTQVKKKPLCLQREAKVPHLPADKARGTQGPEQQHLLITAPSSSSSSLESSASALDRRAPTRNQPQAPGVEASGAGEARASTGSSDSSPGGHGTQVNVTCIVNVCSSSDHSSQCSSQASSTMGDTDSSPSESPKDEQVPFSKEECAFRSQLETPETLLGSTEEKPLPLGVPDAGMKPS

T2: TNFR2-His (Sino Biological, 10417-H08H, NP_001057.1 Met1-Asp257, with multi-histidine tag expressed on … (human, UniProt P20333 23-257))
T2 construct: range 1-257; Bought protein; also called recombinant human TNFR2 protein; TNFR2-His antigen; not shown: C-terminal multi-histidine tag
T2 sequence (looked up): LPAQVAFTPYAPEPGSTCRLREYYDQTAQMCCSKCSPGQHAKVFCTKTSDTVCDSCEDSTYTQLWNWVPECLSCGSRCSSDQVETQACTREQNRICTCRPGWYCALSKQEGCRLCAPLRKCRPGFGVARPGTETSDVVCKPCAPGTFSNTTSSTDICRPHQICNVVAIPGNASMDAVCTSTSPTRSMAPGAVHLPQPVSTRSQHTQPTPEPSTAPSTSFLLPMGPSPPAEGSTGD


What was measured:
[1] = target: T1, human TNFR2 on the cell membrane; test: flow cytometry, Jurkat-TNFR2 cells
Description: Purified human-mouse monoclonal antibodies against TNFR2 were co-cultured with TNFR2 positive Jurkat cells (Jurkat cells were transfected with pcDNA3.4-TNFR2 plasmid using conventional methods, and after screening, stable and highly expressed TNFR2 Jurkat cell lines were obtained) and stained. The antibody binding intensity was analyzed by flow cytometry. The specific steps are as follows: Jurkat-TNFR2 was counted, centrifuged, resuspended, then added to a 96-deep well plate, and the supernatant was discarded. The anti-TNFR2 antibody was gradient diluted, and added to the 96-deep well plate, After incubation and wash, the secondary antibody FITC-anti-human IgG (Abcam: 6854) was added, and the samples were detected using Beckman CytoFLEX.

[2] = target: T2, TNFR2-His (Sino Biological, 10417-H08H, …); test: ELISA, plate coated with TNFR2-His
Description: To determine whether the human-mouse chimeric TNFR2 monoclonal antibody of the present invention can bind to recombinant human TNFR2 protein, in vitro ELISA test was conducted. Similar to the method described above, The plate was coated with TNFR2-His (Sino Biological, 10417-H08H, Assessment #NP_001057.1.Met1-Asp257, with multi-histidine tag expressed on C-terminus) antigens, and blocked with BSA, then added with gradient diluted human-mouse chimeric TNFR2 monoclonal antibodies for incubation. Then, secondary antibody Ap-anit-human IgG Fc (JacksonImmuno Research, 109-055-098) was added for incubation After TMB development, ELISA reading was performed.

[3] = target: T2, TNFR2-His (Sino Biological, 10417-H08H, …); test: competition ELISA on coated TNFR2-His against biotin-labeled TNFα fusion protein at fixed concentration
Description: The ELISA plate was coated with TNFR2-His antigen (Sino Biological, 10417-H08H, Assessment #NP_001057.1. Met1-Asp257, with multi-histidine tags expressed on C-terminus) and blocked, added with the gradient diluted TNFR2 monoclonal antibodies and biotin-labeled TNFα fusion protein of fixed concentration for incubation, then added with the secondary antibody Ap-Strepavidin (Herobio, 510401) for incubation. After development, the detection was performed using microplate reader.

[4] = target: T1, human TNFR2 on the cell membrane; test: competition flow cytometry, TNFR2 positive cells, TNFα fusion protein at fixed concentration
Description: Purified anti-human TNFR2 human-mouse monoclonal antibodies were co-cultured with TNFR2 positive cells and stained. The antibody binding intensity was analyzed by flow cytometry. The specific steps are as follows: cells were counted, centrifugated, resuspended, then added to a 96-deep well plate, and the supernatant was discarded. Gradient diluted anti-TNFR2 antibodies and TNFα fusion protein of fixed concentration were added. After incubation and wash, the secondary antibody PE-streptavidin (Biogen, 405203) was added for incubation, and the samples were detected using Beckman CytoFLEX.

[5] = target: T1, human TNFR2 on the cell membrane; test: flow cytometry, CHO-TNFR2 cells
Outline: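 Binding was measured by flow cytometry (Beckman CytoFLEX) on a CHO line stably overexpressing human TNFR2. Cells in 96-deep-well plates were exposed to serially diluted antibodies, washed and labelled with a fluorescent anti-IgG secondary antibody, and EC50 was determined across the dilutions.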

[6] = target: T2, TNFR2-His (Sino Biological, 10417-H08H, …); test: ELISA, plate coated with TNFR2-His (first test)
Outline: (§1)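 Antibodies were serially diluted and incubated on blocked ELISA plates coated with C-terminally His-tagged recombinant human TNFR2. Detection used an enzyme-labelled anti-IgG secondary antibody, TMB development and a microplate reader, and the dilution series gave the EC50.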

[7] = target: T2, TNFR2-His (Sino Biological, 10417-H08H, …); test: BLI, antibody captured on AHC probe, TNFR2 in solution
Outline: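 Antibodies at 50 nM in Q buffer were held on antibody-capture sensors, and the sensors were then moved into recombinant human TNFR2 diluted 2-fold in Q buffer, starting from 100 nM. Q buffer was 10 mM PBS pH 7.4 with 0.02% Tween 20 and 0.2% BSA. The work used bio-layer interferometry on an Octet in Basic Kinetics mode, and Kon, koff and Kd come from these kinetic association measurements.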

[8] = target: T2, TNFR2-His (Sino Biological, 10417-H08H, …); test: ELISA, plate coated with TNFR2-His (second test)
Outline: as §1

Row | EC50 [1] [µg/mL] | EC50 [2] [µg/mL] | IC50 [3] | IC50 [4] [µg/mL] | EC50 [5] [nM] | EC50 [6] | Kd [7] [nM] | koff [7] [s⁻¹] | kon [7] [M⁻¹ s⁻¹] | EC50 [8] | Binder
1 | 0.036 | 0.0415 | 0.674 µg/mL and 4.52 nM | 0.179 |  |  |  |  |  |  | human-mouse chimeric TNFR2 monoclonal antibody 27F6-hFc (antibody, V domains shown, Mouse V regions of clone 27F6 with human constant regions) VH: EVQLQQSGTVLARPGASVKMSCKTSGYTFTSYWMHWVKQRPGQGLEWIGTIYPGNSDTSYNQKFKGKAKLTAVTSASTAYMELNSLTNEDSAVFYCTRENLLLRSYFFDYWGQGTTLTVSS VL: DIVMTQSPASLAVSLGQRATISCKASQSVDYDGDSYLNWYQQKPGQPPKLLIYAASNLPSGIPARFSGSGSGTDFTLNIHPVEEEDAATYYCQQSNEDPRTFGGGTKLEIK
2 | 0.012 | 0.0396 |  |  | 0.195 | 0.0454 µg/mL and 0.304 nM | 3.27 | 0.00216 | 659000 | 0.0346 µg/mL and 0.232 nM | human-mouse chimeric TNFR2 monoclonal antibody 12E12-hFc (antibody, V domains shown, Mouse V regions of clone 12E12 with human constant regions; also called human-mouse chimeric 12E12 antibody) VH: EVQLQQSGAELVKPGASVKLSCTVSGFNIKDFYIHWVKQRPEQGLEWIGRVDPEDGNTEYAPNFQDRATMTTDTSSNTAYLQLSSLTSVDTAVYYCSTWDGFSYFDYWGLGTTLTVSS VL: QAVVTQESALTTSPGETVTLTCRSSTGPVTTNNYANWVQEKPDHLFTGLIGGTNDRAPGVPARFSGSLIGDKTALTITGTQTEDEAVYFCALWYRNHWVFGGGTKLTVL
